Substrate: CC(=O)Nc1ccn([C@H]2C[C@H](O)[C@@H](CO)O2)c(=O)n1
Assay: purified protein
Format: biochemical, Escherichia coli
Settings: 10 mM Tris-HCl pH 8.0, 22 °C, free enzyme

B1: YqfB (free wild-type YqfB, amidohydrolase YqfB) (Escherichia coli K-12) (protein)
chain: MQPNDITFFQRFQDDILAGRKTITIRDESESHFKTGDVLRVGRFEDDGYFCTIEVTATSTVTLDTLTEKHAEQENMTLTELKKVIADIYPGQTQFYVIEFKCL
notes: free wild-type YqfB
In the case of B1, the Km is reported as “(4.9 ± 0.04) × 10^−4 M”, the kcat is reported as 113 ± 1 s⁻¹ and the kcat/Km is reported as 230000 M⁻¹ s⁻¹.
